Biological target: mouse PIEZO1-S2472E mutant (mouse) (UniProt E2JF22)
Assay: cryo-EM structure

stoichiometry N: 3
Substance: mouse PIEZO1-S2472E mutant, E2JF22 1-2547

— doi:10.1101/2023.09.28.559900
